Measurements reported in patent US9688764B2, “Methods of treating breast cancer by administering anti-human prolactin receptor (PRLR) antibodies” (REGENERON PHARMACEUTICALS, INC., priority 2013, dated 2017).

B1: H1H6762P-DM1 (conjugate)
VH: QVQLVESGGGVVQPGRSLRLSCAASGFTFSHYGMVWVRQPPGKGLEWVALISFDGTTKYYADSVKGRFTISRDNSKNTLYLQMNSLRAEDTAVYFCVGAIAAAAFDLWGRGTLVTVSS
VL: EIVMTQSPATLSVSPGERATLSCRASQSVSSDLAWYQQKPGQAPRLLIYSASARATGIPARFTGSGSGTDFTLTISSLQSEDFAVYYCQQYNNWPMYTFGQGTKLEIK
B2: H1H6800P-DM1 (conjugate)
VH: EVQLVESGGGLVQPGRSLRLSCAASGFTFDGYAMHWVRQGPGKGLEWVSGISWYSDTLGYADSVKGRFTISRDNAKNSLYLQMNSLRTEDTAFYYCAKISSSGWAFDYWGQGTLVTVSS
VL: EIVLTQSPGTLSLSPGERATLSCRASHSVSSAYLAWYQQKPGQTPRLLIYGTSSRATGIPDRFSGSGSGTDFTLTISRLEPEDFAVYYCQQYGSSPLFTFGPGTKVDIK
B3: H1H6953N-SMCC-DM1 (conjugate)
VH: EVQLLESGGGLVQPGGTLRLSCAASGFTFSAYAMSWVRQAPGKGLEWVSSINVRAGDTYYADSVKGRFTISRDNSKNTLFLLMNSLRAEDTAAYYCAKARYSSNWGFDFWGQGTLVTVSS
VL: DIVMTQSPDSLTVSLGARTTINCQSSQTILHSSNNHNYLAWYQQKPGLPPKLLIYWSSTRESGVPDRFSGSGSGTDFTLTISSLQAEDVAIYYCQQYSNTPYTFGQGTKLEIN
B4: H1H6803P-DM1 (conjugate)
VH: EVQLVESGGGVVRPGGSLRLSCAASGFKFDDYGMTWVRHVPGKGLEWVSGINWNGGRTGYTDSVKGRFTISRDNAKNSLYLQMNSLRAEDTALYHCAGARRDAFDIWGQGTMVTVSS
VL: DIQMTQSPSSLSASIGDRVTITCRASQNIIKYLNWYQQNAGKAPKLLIYTASSLQSGVPSRFSGSGSGTDFTLTISSLQPEDFATYYCQQSSSSPYTFGQGTKLEIK
B5: H1H6793P-DM1 (conjugate)
VH: EVQLVESGGGLVQPGGSLRLSCAASGFSFSIYAMSWFRQAPGKGLEWVSAINGRGDGTHYADSVKGRFTISRDNSKTTLYLQMSSLRAEDTAVYYCAKPVMSTNGFDIWGQGTMVTVSS
VL: DIQMTQSPSTLSASVGDRVTITCRASQSISSWLAWYQLKPGKAPKLLIYKASNLESGVPSRFSGSGSGTEFTLTISSLQPDDFATYYCQQYNIYWTFGQGTKVEIK
B6: H1H6958N2-mc-VC-PAB-MMAE (conjugate)
VH: QVQLVESGGGVVQPGRSLRLSCGASGFTFRNYGMQWVRQGPGKGLEWVTLISFDGNDKYYADSVKGRFTISRDNSKNTLFLQMNSLRTEDTAVYYCARGGDFDYWGQGTLVTVSS
VL: DIQMTQSPSSLSASVGDRVTITCRASQDIRKDLGWYQQKPGKAPKRLIYAASSLHSGVPSRFSGSGSGTEFTLTISSLQPEDFATYYCLQHNSYPMYTFGQGTKLEIK
B7: H1H6765P-mc-VC-PAB-MMAE (conjugate)
VH: EVQLVESGGGVVRPGGSLRLSCVGSGFSFDDHGMNWVRQGPGKGLEWVSGFNWNGGSTNYAESVKGRFTISRDNARNSLFLQMNSLRAEDTALYYCVRGRSGWFNDAFDVWGPGTMVTVSS
VL: EIVLTQSPGTLSLSPGERATLSCRASQTINSNYLAWYRQKPGQTPRLLIYGTSSRATGIPDRFSGSGSGTDFSLTISRLEPEDFAVFYCQQYAGLPTFGPGTKVDIK
B8: H1H6975P-DM1 (conjugate)
VH: EVHLVESGGGLVQPGGSLRLSCAASGFTFSSYEMNWVRQTPGKGLEWISHISSRSVIIYYADSVKGRFTISRDNAKNSLFLQMNSLRAEDTAVYFCAGITIFGIPEYWGQGTLVTVSS
VL: EIVLTQSPATLSLSPGERATLSCRASQSVSSYFAWYQQKPGQAPRLLIYDASSRATGIPTRFSGSGSGTDFTLTISSLEPEDFAVYYCQQRSSWPITFGQGTRLEIK

Tested on: HEK293 (293) cells
Assay: Cell viability (cell kill) assay
Format: cell-based
Conditions: 293; Table 11; 3 days
Description: (§1) PRLR-overexpressing cells, including HEK293, PC3, MCF7 and NCI-N87, were generated to assess the ability of anti-PRLR conjugated antibodies to reduce cell viability. For comparative purposes, PC3 and T47D cells with overexpressed ErbB2 were also generated, as well as an MCF7 cell line over-expressing both hPRLR and hErbB2. Briefly, Lipofectamine® 2000-mediated transfection methodology was utilized to generate HEK293 cells expressing human PRLR (HEK293/hPRLR) or human ErbB2 (HEK293/hErbB2). Lipofectamine LTX with Plus Reagent was used to generate PC3 cells expressing human PRLR (PC3/hPRLR) or human ErbB2 (PC3/hErbB2). Lentiviral-mediated transduction was utilized to generate MCF7 cells expressing human PRLR (MCF7/hPRLR), NCI-N87 cells expressing human PRLR (NCI-N87/hPRLR), T47D cells over-expressing human ErbB2 (T47D/hErbB2), and MCF7 cells expressing both human PRLR and human ErbB2 (MCF7/hPRLR/hErbB2). All lines were selected for at least two weeks in complete growth media plus appropriate selection reagents. Stably expressing populations were enriched for PRLR expression via FACS using the anti PRLR antibody Control I.
(§2) Next, the ability of anti-PRLR-DM1 antibody-drug conjugates (i.e., anti-PRLR antibodies conjugated to DM1 via a non-cleavable linker [SMCC]) to reduce cell viability was determined using in vitro cell based assays. Cells were seeded in PDL-coated 96 well plates at 1500 to 10000 cells per well in complete growth media and allowed to grow overnight. For cell viability curves, ADCs or free DM1 (as the methyl disulfide derivative DM1-SMe) were added to the cells at final concentrations ranging from 500 nM to 5 pM and incubated for 3 days. The 293, PC3 and T47D cells were incubated with CCK8 (Dojindo, Rockville, Md.) for the final 1-3 hours and the absorbance at 450 nm (OD450) was determined on a Flexstation3 (Molecular Devices, Sunnyvale, Calif.). MCF7 cells were treated with Hoechst 33342 nuclear stain while being fixed with 4% formaldehyde. Images were acquired on the ImageXpress micro XL (Molecular Devices, Sunnyvale, Calif.) and nuclear counts were determined via Columbus image analysis software (Perkin Elmer, Shelton, Conn.). Background OD450 values (PC3, 293, and T47D) or nuclear counts (MCF7) from digitonin (40 nM) treated cells was subtracted from all wells and viability was expressed as a percentage of the untreated controls. IC50 values were determined from a four-parameter logistic equation over a 10-point response curve (GraphPad Prism).

Row | Molecule | IC50 | % Kill
1 | B1 | 100 nM | 
2 | B2 | 150 nM | 85%

Same assay, conditions: 293; Table 19

Row | Molecule | % Kill | IC50
3 | B3 | 90% | 100 nM

Tested on: PC3/hPRLR cells
Assay: Cell viability (cell kill) assay
Format: cell-based, human
Conditions: PC3/PRLR; Table 11; 3 days
Description: as §1, §2
(§3) Finally, the potency of anti-PRLR antibodies conjugated to DM1 via the non-cleavable linker SMCC was compared to the cell killing potency of anti-PRLR antibodies conjugated to MMAE via the cleavable linker: mc-vc-PAB (available from Concortis, San Diego, Calif.). Cells used in this experiment were PC3, PC3/hPRLR, MCF7/ATCC and MCF7/PRLR.

Row | Molecule | % Kill | IC50
4 | B4 | 70% | 2.32 nM
5 | B1 | 66% | 0.98 nM
6 | B2 | 68% | 1.37 nM
7 | B5 | 65% | 3.65 nM

Same assay, conditions: PC3/hPRLR; Table 18

Row | Molecule | % Kill | IC50
8 | B6 | 82% | 0.5 nM
9 | B7 | 85% | 0.4 nM
10 | B3 | 83% | 0.4 nM

Tested on: not listed separately
Assay: Conjugate characterization: protein and linker/payload concentrations, payload loading (UV, MALDI-TOF, SEC-HPLC, RP-HPLC)
Format: physicochemical
Conditions: Anti-PRLR-SMCC-DM1 conjugates; Table 9
Description: Selected anti-PRLR antibodies were conjugated to the maytansinoid DM1 through an SMCC linker using methods similar to those set forth in U.S. Pat. No. 5,208,020 and US Patent Application Publication No. 2010/0129314, the disclosures of which are incorporated by reference herein in their entireties. The conjugates were purified by size exclusion chromatography and sterile filtered. All starting materials and solvents were purchased commercially and used without purification, unless otherwise noted.
Protein and linker/payload concentrations were determined by UV spectral analysis and MALDI-TOF mass spectrometry. Size-exclusion HPLC established that all conjugates used were >95% monomeric, and RP-HPLC established that there was <0.5% unconjugated linker payload. Yields are reported in Table 8 and 9 based on protein. All conjugated antibodies were analyzed by UV for linker payload loading values according to Hamblett et al, 2004, Clinical Cancer Research 10(20):7063-7070, and by mass difference, native versus conjugated.

Row | Molecule | Payload:Antibody Molar Ratio (MS) | Payload:Antibody Molar Ratio (UV)
11 | B4 | 3.1 | 
12 | B1 | 2.9 | 
13 | B8 | 3.4 | 3.0
14 | B2 | 3.2 | 3.0
15 | B5 | 3.8 | 

Tested on: T47D cells
Assay: Cell viability (cell kill) assay
Format: cell-based
Conditions: T47D; Table 12; 3 days
Experimental: as §2
Additionally, the impact of the PRLR ligand, PRL, on PRLR-SMCC-DM1 cell kill in T47D cells was assessed. T47D cells were incubated simultaneously with PRL (15 nM) and either a non-blocking anti PRLR antibody (H1H6782P) or a receptor blocking antibody (H1H6958N2).
(§4) Additional toxins (DM4, MeNHC3-May, and MMD) conjugated to anti-PRLR antibodies were also tested in T47D and MCF7/hPRLR cell lines, and results are summarized in Tables 19 (293 and T47D cell killing) and 20 (MCF7/ATCC and MCF7/PRLR cell killing). (ND=not detected).

Row | Molecule | % Kill
16 | B4 | 77%
17 | B1 | 80%
18 | B2 | 79%
19 | B5 | 53%

Same assay, conditions: T47D; Table 12; 3 days; read-out: IC50

Row | Molecule | IC50
20 | B4 | 8.61 nM
21 | B1 | 12.6 nM
22 | B2 | 3.2 nM
23 | B5 | 11.1 nM

Same assay, conditions: T47D; Table 19

Row | Molecule | % Kill
24 | B6 | 90%
25 | B7 | 90%
26 | B3 | 100%

Same assay, conditions: T47D; Table 19; read-out: IC50

Row | Molecule | IC50
27 | B6 | 1 nM
28 | B7 | 1 nM
29 | B3 | 1.5 nM

Tested on: PC3 cells
Assay: Cell viability (cell kill) assay
Format: cell-based
Conditions: Table 11, 3 days
Description: as §1, §2, §3

Row | Molecule | IC50
30 | B4 | 150 nM
31 | B2 | 150 nM

Same assay, conditions: Table 18

Row | Molecule | IC50
32 | B6 | 100 nM
33 | B7 | 150 nM
34 | B3 | 90 nM

Tested on: MCF7 (MCF7/ATCC) cells
Assay: Cell viability (cell kill) assay, nuclear counts
Format: cell-based
Conditions: MCF7/ATCC; Table 18
Description: as §1, §2, §3, §4

Row | Molecule | % Kill | IC50
35 | B6 | 53% | 150 nM
36 | B7 | 38% | 150 nM
37 | B3 | 70% | 80 nM

Same assay, conditions: MCF7/ATCC; Table 20

Row | Molecule | % Kill | IC50
38 | B6 | 50% | 150 nM
39 | B7 | 40% | 150 nM
40 | B3 | 70% | 90 nM

Same assay, conditions: MCF7; Table 12; 3 days

Row | Molecule | % Kill | IC50
41 | B4 | 60% | 150 nM
42 | B1 | 64% | 110 nM
43 | B2 | 65% | 150 nM
44 | B5 | 67% | 125 nM

Tested on: MCF7/hPRLR (MCF7/PRLR) cells
Assay: Cell viability (cell kill) assay, nuclear counts
Format: cell-based, human
Conditions: Table 12, 3 days
Description: as §1, §2, §3, §4

Row | Molecule | % Kill | IC50
45 | B4 | 84% | 0.44 nM
46 | B1 | 83% | 0.46 nM
47 | B2 | 85% | 0.4 nM
48 | B5 | 87% | 0.54 nM

Same assay, conditions: Table 18

Row | Molecule | % Kill | IC50
49 | B6 | 88% | 0.2 nM
50 | B7 | 86% | 0.2 nM
51 | B3 | 80% | 0.1 nM

Same assay, conditions: Table 20

Row | Molecule | % Kill | IC50
52 | B6 | 90% | 0.2 nM
53 | B7 | 90% | 0.2 nM
54 | B3 | 80% | 0.3 nM
